Assay type: biochemical
Conditions: pH 7.2
Procedure, shortened: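 TriA variants, N-His-tagged, were expressed in E. coli BL21(DE3) Gold with groEL/groES chaperones and purified by Ni-IDA affinity. Enzyme in 25 mM sodium phosphate pH 7.2 was incubated with azine substrates at 1 nM to 10 nM, 30° C. Products were identified by UPLC-HR-MS.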

| Molecule | Degradation in % of 6-cyclopentyl-N4-(2,3,4,5,6-pentafluorophenyl)-1,3,5-triazine-2,4-diamine [%] | Degradation in % of Melamine [%] |
| --- | --- | --- |
| L88AL92AY93V: mutated TriA variant of SEQ ID NO: 2 (protein, Pseudomonas) MQTLSIQHGTLVTMDQYRRVLGDSWVHVQDGRIVALGVHAESVPPPADRVIDARGKVVLPGFINAHTHVNQILLRGGPSHGRQLYDWAFNVAVPGQKAMRPEDVAVAVRLYCAEAVRSGITTINDNADSAIYPGNIEAAMAVYGEVGVRVVYARMFFDRMDGRIQGYVDALKARSPQVELCSIMEETAVAKDRITALSDQYHGTAGGRISVWPAPAITPAVTVEGMRWAQAFARDRAVMWTLHMAESDHDERLHWMSPAEYMECYGLLDERLQVAHCVYFDRKDVRLLHRHNVKVASQVVSNAYLGSGVAPVPEMVERGMAVGIGTDDGNCNDSVNMIGDMKFMAHIHRAVHRDADVLTPEKILEMATIDGARSLGMDHEIGSIETGKRADLILLDLRHPQTTPHHHLAATIVFQAYGNEVDTVLIDGNVVMENRRLSFLPPERELAFLEEAQSRATAILQRANMVANPAWRSL | 25 | 0 |
| Y85LL88AL92AY93LQ96TD128G: mutated TriA variant of SEQ ID NO: 2 (protein, Pseudomonas) MQTLSIQHGTLVTMDQYRRVLGDSWVHVQDGRIVALGVHAESVPPPADRVIDARGKVVLPGFINAHTHVNQILLRGGPSHGRQLLDWAFNVALPGTKAMRPEDVAVAVRLYCAEAVRSGITTINDNAGSAIYPGNIEAAMAVYGEVGVRVVYARMFFDRMDGRIQGYVDALKARSPQVELCSIMEETAVAKDRITALSDQYHGTAGGRISVWPAPAITPAVTVEGMRWAQAFARDRAVMWTLHMAESDHDERLHWMSPAEYMECYGLLDERLQVAHCVYFDRKDVRLLHRHNVKVASQVVSNAYLGSGVAPVPEMVERGMAVGIGTDDGNCNDSVNMIGDMKFMAHIHRAVHRDADVLTPEKILEMATIDGARSLGMDHEIGSIETGKRADLILLDLRHPQTTPHHHLAATIVFQAYGNEVDTVLIDGNVVMENRRLSFLPPERELAFLEEAQSRATAILQRANMVANPAWRSL | 12 | 0 |
| L92AY93LQ96TD128G: mutated TriA variant of SEQ ID NO: 2 (protein, Pseudomonas) MQTLSIQHGTLVTMDQYRRVLGDSWVHVQDGRIVALGVHAESVPPPADRVIDARGKVVLPGFINAHTHVNQILLRGGPSHGRQLYDWLFNVALPGTKAMRPEDVAVAVRLYCAEAVRSGITTINDNAGSAIYPGNIEAAMAVYGEVGVRVVYARMFFDRMDGRIQGYVDALKARSPQVELCSIMEETAVAKDRITALSDQYHGTAGGRISVWPAPAITPAVTVEGMRWAQAFARDRAVMWTLHMAESDHDERLHWMSPAEYMECYGLLDERLQVAHCVYFDRKDVRLLHRHNVKVASQVVSNAYLGSGVAPVPEMVERGMAVGIGTDDGNCNDSVNMIGDMKFMAHIHRAVHRDADVLTPEKILEMATIDGARSLGMDHEIGSIETGKRADLILLDLRHPQTTPHHHLAATIVFQAYGNEVDTVLIDGNVVMENRRLSFLPPERELAFLEEAQSRATAILQRANMVANPAWRSL | 94 | 0 |
| Y85LL88AL92AY93L: mutated TriA variant of SEQ ID NO: 2 (protein, Pseudomonas) MQTLSIQHGTLVTMDQYRRVLGDSWVHVQDGRIVALGVHAESVPPPADRVIDARGKVVLPGFINAHTHVNQILLRGGPSHGRQLLDWAFNVALPGQKAMRPEDVAVAVRLYCAEAVRSGITTINDNADSAIYPGNIEAAMAVYGEVGVRVVYARMFFDRMDGRIQGYVDALKARSPQVELCSIMEETAVAKDRITALSDQYHGTAGGRISVWPAPAITPAVTVEGMRWAQAFARDRAVMWTLHMAESDHDERLHWMSPAEYMECYGLLDERLQVAHCVYFDRKDVRLLHRHNVKVASQVVSNAYLGSGVAPVPEMVERGMAVGIGTDDGNCNDSVNMIGDMKFMAHIHRAVHRDADVLTPEKILEMATIDGARSLGMDHEIGSIETGKRADLILLDLRHPQTTPHHHLAATIVFQAYGNEVDTVLIDGNVVMENRRLSFLPPERELAFLEEAQSRATAILQRANMVANPAWRSL | 13 | 0 |
| Y85LL88AF89AL92AY93LQ96TD128G: mutated TriA variant of SEQ ID NO: 2 (protein, Pseudomonas) MQTLSIQHGTLVTMDQYRRVLGDSWVHVQDGRIVALGVHAESVPPPADRVIDARGKVVLPGFINAHTHVNQILLRGGPSHGRQLLDWAANVALPGTKAMRPEDVAVAVRLYCAEAVRSGITTINDNAGSAIYPGNIEAAMAVYGEVGVRVVYARMFFDRMDGRIQGYVDALKARSPQVELCSIMEETAVAKDRITALSDQYHGTAGGRISVWPAPAITPAVTVEGMRWAQAFARDRAVMWTLHMAESDHDERLHWMSPAEYMECYGLLDERLQVAHCVYFDRKDVRLLHRHNVKVASQVVSNAYLGSGVAPVPEMVERGMAVGIGTDDGNCNDSVNMIGDMKFMAHIHRAVHRDADVLTPEKILEMATIDGARSLGMDHEIGSIETGKRADLILLDLRHPQTTPHHHLAATIVFQAYGNEVDTVLIDGNVVMENRRLSFLPPERELAFLEEAQSRATAILQRANMVANPAWRSL | 9 | 0 |
| Y85LL88AL92AY93V: mutated TriA variant of SEQ ID NO: 2 (protein, Pseudomonas) MQTLSIQHGTLVTMDQYRRVLGDSWVHVQDGRIVALGVHAESVPPPADRVIDARGKVVLPGFINAHTHVNQILLRGGPSHGRQLLDWAFNVAVPGQKAMRPEDVAVAVRLYCAEAVRSGITTINDNADSAIYPGNIEAAMAVYGEVGVRVVYARMFFDRMDGRIQGYVDALKARSPQVELCSIMEETAVAKDRITALSDQYHGTAGGRISVWPAPAITPAVTVEGMRWAQAFARDRAVMWTLHMAESDHDERLHWMSPAEYMECYGLLDERLQVAHCVYFDRKDVRLLHRHNVKVASQVVSNAYLGSGVAPVPEMVERGMAVGIGTDDGNCNDSVNMIGDMKFMAHIHRAVHRDADVLTPEKILEMATIDGARSLGMDHEIGSIETGKRADLILLDLRHPQTTPHHHLAATIVFQAYGNEVDTVLIDGNVVMENRRLSFLPPERELAFLEEAQSRATAILQRANMVANPAWRSL | 13 | 0 |
| N70TQ71V: mutated TriA variant of SEQ ID NO: 2 (protein, Pseudomonas) MQTLSIQHGTLVTMDQYRRVLGDSWVHVQDGRIVALGVHAESVPPPADRVIDARGKVVLPGFINAHTHVTVILLRGGPSHGRQLYDWLFNVLYPGQKAMRPEDVAVAVRLYCAEAVRSGITTINDNADSAIYPGNIEAAMAVYGEVGVRVVYARMFFDRMDGRIQGYVDALKARSPQVELCSIMEETAVAKDRITALSDQYHGTAGGRISVWPAPAITPAVTVEGMRWAQAFARDRAVMWTLHMAESDHDERLHWMSPAEYMECYGLLDERLQVAHCVYFDRKDVRLLHRHNVKVASQVVSNAYLGSGVAPVPEMVERGMAVGIGTDDGNCNDSVNMIGDMKFMAHIHRAVHRDADVLTPEKILEMATIDGARSLGMDHEIGSIETGKRADLILLDLRHPQTTPHHHLAATIVFQAYGNEVDTVLIDGNVVMENRRLSFLPPERELAFLEEAQSRATAILQRANMVANPAWRSL | 3 | 0 |
| Y85LL88AL92AY93VQ96TD128G: mutated TriA variant of SEQ ID NO: 2 (protein, Pseudomonas) MQTLSIQHGTLVTMDQYRRVLGDSWVHVQDGRIVALGVHAESVPPPADRVIDARGKVVLPGFINAHTHVNQILLRGGPSHGRQLLDWAFNVAVPGTKAMRPEDVAVAVRLYCAEAVRSGITTINDNAGSAIYPGNIEAAMAVYGEVGVRVVYARMFFDRMDGRIQGYVDALKARSPQVELCSIMEETAVAKDRITALSDQYHGTAGGRISVWPAPAITPAVTVEGMRWAQAFARDRAVMWTLHMAESDHDERLHWMSPAEYMECYGLLDERLQVAHCVYFDRKDVRLLHRHNVKVASQVVSNAYLGSGVAPVPEMVERGMAVGIGTDDGNCNDSVNMIGDMKFMAHIHRAVHRDADVLTPEKILEMATIDGARSLGMDHEIGSIETGKRADLILLDLRHPQTTPHHHLAATIVFQAYGNEVDTVLIDGNVVMENRRLSFLPPERELAFLEEAQSRATAILQRANMVANPAWRSL | 14 | 0 |
| Q71NL92AY93LQ96TD128G: mutated TriA variant of SEQ ID NO: 2 (protein, Pseudomonas) MQTLSIQHGTLVTMDQYRRVLGDSWVHVQDGRIVALGVHAESVPPPADRVIDARGKVVLPGFINAHTHVNNILLRGGPSHGRQLYDWLFNVALPGTKAMRPEDVAVAVRLYCAEAVRSGITTINDNAGSAIYPGNIEAAMAVYGEVGVRVVYARMFFDRMDGRIQGYVDALKARSPQVELCSIMEETAVAKDRITALSDQYHGTAGGRISVWPAPAITPAVTVEGMRWAQAFARDRAVMWTLHMAESDHDERLHWMSPAEYMECYGLLDERLQVAHCVYFDRKDVRLLHRHNVKVASQVVSNAYLGSGVAPVPEMVERGMAVGIGTDDGNCNDSVNMIGDMKFMAHIHRAVHRDADVLTPEKILEMATIDGARSLGMDHEIGSIETGKRADLILLDLRHPQTTPHHHLAATIVFQAYGNEVDTVLIDGNVVMENRRLSFLPPERELAFLEEAQSRATAILQRANMVANPAWRSL | 85 | 0 |
| Y85LL88AF89AL92AY93VQ96TD128G: mutated TriA variant of SEQ ID NO: 2 (protein, Pseudomonas) MQTLSIQHGTLVTMDQYRRVLGDSWVHVQDGRIVALGVHAESVPPPADRVIDARGKVVLPGFINAHTHVNQILLRGGPSHGRQLLDWAANVAVPGTKAMRPEDVAVAVRLYCAEAVRSGITTINDNAGSAIYPGNIEAAMAVYGEVGVRVVYARMFFDRMDGRIQGYVDALKARSPQVELCSIMEETAVAKDRITALSDQYHGTAGGRISVWPAPAITPAVTVEGMRWAQAFARDRAVMWTLHMAESDHDERLHWMSPAEYMECYGLLDERLQVAHCVYFDRKDVRLLHRHNVKVASQVVSNAYLGSGVAPVPEMVERGMAVGIGTDDGNCNDSVNMIGDMKFMAHIHRAVHRDADVLTPEKILEMATIDGARSLGMDHEIGSIETGKRADLILLDLRHPQTTPHHHLAATIVFQAYGNEVDTVLIDGNVVMENRRLSFLPPERELAFLEEAQSRATAILQRANMVANPAWRSL | 13 | 0 |
